Data set [1] has as its target knob domain of the FAdV-4 Fiber2 protein (Fowl aviadenovirus 4, UniProt A0A1B1SKZ0). The data set can be described thus: Surface plasmon resonance assay (Biacore X100, CM5 chip). The data set is classed as binding, fowl adenovirus serotype 4 (FAdV-4). For orientation: Surface plasmon resonance follows binding to a sensor surface in real time, without labels.
Another data set relates to LMH cells. Particulars: 0-200 μM, 24, 48 and 72 h incubation, vs untreated group.
The target of data set [2] is knob domain of the FAdV-4 Fiber2 protein (amino acids 279–479) (fowl adenovirus serotype 4 (FAdV-4)). The data set is described as follows: SEC; Superdex200 Increase 10/300 GL; protein eluted at 14.78 mL. Background: Size exclusion chromatography separates by hydrodynamic size, large species first.
Data set [3] has the same target. The data set is described as follows: AUC.
Data set [4] has the same target. The data set is described as follows: SDS-PAGE without boiling.
For data set [5] the target is unchanged. The data set is described as follows: crystal structure.
Data set [6] shares this target. The data set is described as follows: SPR.

No end group written: not given here.

MQKHCG [Peptide P27, MQKHCG]: in data set [1], the affinity, expressed as Kd, was 572 nM. Still for that read-out and setting: the same measure for MQKHEW [Peptide P25, MQKHEW]: 1370 nM; for MQKKFI [Peptide P30, MQKKFI]: 907 nM; for QWKARV [Peptide P14, QWKARV]: 24000 nM. The molecule QWKIEK [Peptide P5, QWKIEK] gave a Kd in data set [1] of 1200 nM.

As for QWKIHR [Peptide P6, QWKIHR], binding in data set [1] was characterised by a dissociation constant (Kd) of 2780 nM. The same measure, in the same setting: the value for QWKKHI [Peptide P1, QWKKHI] was 6160 nM. On the same count and under the same terms, the same measure for QWKNCK [Peptide P10, QWKNCK]: 1020 nM. As for WWHEKE [Peptide P15, WWHEKE], the “cytotoxic effect (CCK-8)” value with LMH cells was “no cytotoxic effect”.

Turning to “knob domain of the FAdV-4 Fiber2 protein (amino acids 279–479) (domain or fragment)”, the stoichiometry N in data set [2], in data set [3], in data set [4] and in data set [5] was 3 each time.

For the molecule QWKIEK [peptide P5], the Kd in data set [6] is 1200 nM. Still for that read-out and setting: the same measure for QWKARV [peptide P14]: 24000 nM; for QWKIHR [peptide P6]: 2780 nM.

In data set [6], WWHEKE [peptide number 15 (P15; WWHEKE)] yielded a Kd of 1440 nM. Same read-out and setting: the value for MQKHEW [peptide P25] was 1370 nM; that for MQKHCG [peptide P27] was 572 nM. Still for that read-out and setting: the same measure for MQKKFI [peptide P30]: 907 nM; for QWKNCK [peptide P10]: 1020 nM. In data set [6], QWKKHI [peptide P1] registered a Kd of 6160 nM.

For orientation: Kd means a measure of binding affinity in units of concentration. Lower therefore signals a tighter complex. For orientation: stoichiometry N means the number of molecules, sites or subunits per partner or assembly.

The record behind these values is paper PMC10146638 (Viruses, 2023).
